Reference: patent publication US20160368974A1 (UMC UTRECHT HOLDING B V, published 2016)
Ends that are not written are not given here.

T1: peptide …
T1 sequence (peptide): TYSSPEDAIHELFP

T2: peptide …
T2 sequence (peptide): TYSSPEDGAHELFP

T3: peptide …
T3 sequence (peptide): TYSSPEDGIHELAP

T4: peptide TASSPEDGIHELFP (also: covalently linked to a PEPSCAN card)
T4 construct: also called replaced amino acid Y
T4 peptide: TASSPEDGIHELFP

T5: peptide TYASPEDGIHELFP (also: covalently linked to a PEPSCAN card)
T5 construct: also called replaced amino acid S (first)
T5 peptide: TYASPEDGIHELFP

T6: peptide TYSAPEDGIHELFP (also: covalently linked to a PEPSCAN card)
T6 construct: also called replaced amino acid S (second)
T6 peptide: TYSAPEDGIHELFP

T7: peptide TYSSAEDGIHELFP (also: covalently linked to a PEPSCAN card)
T7 construct: also called replaced amino acid P (first)
T7 peptide: TYSSAEDGIHELFP

T8: peptide TYSSPADGIHELFP (also: covalently linked to a PEPSCAN card)
T8 construct: also called replaced amino acid E (first)
T8 peptide: TYSSPADGIHELFP

T9: peptide TYSSPEAGIHELFP (also: covalently linked to a PEPSCAN card)
T9 construct: also called replaced amino acid D
T9 peptide: TYSSPEAGIHELFP

T10: peptide TYSSPEDGIAELFP (also: covalently linked to a PEPSCAN card)
T10 construct: also called replaced amino acid H
T10 peptide: TYSSPEDGIAELFP

T11: peptide TYSSPEDGIHALFP (also: covalently linked to a PEPSCAN card)
T11 construct: also called replaced amino acid E (second)
T11 peptide: TYSSPEDGIHALFP

T12: peptide TYSSPEDGIHEAFP (also: covalently linked to a PEPSCAN card)
T12 construct: also called replaced amino acid L
T12 peptide: TYSSPEDGIHEAFP

T13: peptide TYSSPEDGIHELFA (also: covalently linked to a PEPSCAN card)
T13 construct: also called replaced amino acid P (second)
T13 peptide: TYSSPEDGIHELFA

T14: peptide TYSSPEDGIHELFP (also: covalently linked to a PEPSCAN card)
T14 construct: Synthetic peptide covalently linked to a PEPSCAN card; parent peptide of the alanine scan; also called replaced amino acid: none
T14 peptide: TYSSPEDGIHELFP

T15: peptide AYSSPEDGIHELFP (also: covalently linked to a PEPSCAN card)
T15 construct: also called replaced amino acid T
T15 peptide: AYSSPEDGIHELFP

T16: peptide …
T16 sequence (peptide): TYSSPEDGIHEAFP

B1: antibody 17G8.72 (antibody, V domains shown)
VH: DVQLQESGPDLVKPSQSLSLTCTVTGYSIASGYSWHWIRQFPGNKLEWMGYIHFSGSANYNPSLKSRISITRDTSKNQFFLQLNSVTTEDTATYYCASEARGYFDYWGQGTTLTVSS
VL: DVLMTQTPLSLPVSLGDQASISCRSSQSIVRSNGNTYLTWYLQKPGQSPKLLIYKVSNRFSGVPDRFSGSGSGTDFTLKISRVEAEDLGVYFCFQGSHVPPTFGSGTKLEIKR
notes: Monoclonal antibody against the EDA domain of fibronectin-EDA; also called 17G8.7VL
B2: antibody 27A12.70 (antibody, V domains shown)
VH: DVQLQESGPDLVKPSQSLSLTCTVTGYSITSGYSWHWIRQFPGNKLEWMGYIHYSGIANYNPSLKSRISITRDTSKNHFFLQLNSVTTEDTATYYCATEKTGFFDYWGQGTTLTVSS
VL: DVVMTQTPLSLPVSLGDQASISCRSSQSLVHSNGNTYLHWYLQKPGQSPKLLIYKVSNRFSGVPDRFSGSGSGTDFTLKISRVEAEDLGVYFCSQSAHVPPTFGGGTKLEIKR
notes: Murine monoclonal antibody against the EDA domain of fibronectin-EDA
B3: antibody 29E7.35 (antibody, V domains shown)
VH: AVQLQESGPDLVKPSHSLSLTCTVTGYSITSGYSWHWIRQFPGNKLEWMGYIHYSGSANYNPSLKSRFSITRDTSKNQFFLQLNSVTTEDTATYYCATEKTGFFDYWGQGTTLTVSS
VL: DVVMTQTPLSLPVSLGDQASISCRSSQSLVHSNGNTYLHWYLQKPGQSPKLLIYKVSNRFSGVPDRFSGSGSGTDFTLKISRVEAEDLGVYFCSQSAHVPPTFGGGTKLEIKR
notes: Monoclonal antibody against the EDA domain of fibronectin-EDA

How the values were obtained:
Assay in all cases: PEPSCAN-based ELISA, peptide linked to card
[1] = molecular target: T1, peptide …
[2] = molecular target: T2, peptide …; remark: listed apart in the source
[3] = molecular target: T3, peptide …; remark: listed apart in the source
peptide TASSPEDGIHELFP = molecular target: T4, peptide TASSPEDGIHELFP
Protocol: (§1) The binding of antibody to each peptide was tested in a PEPSCAN-based ELISA. The 455-well credit card format polypropylene cars containing the covalently linked peptides were incubated with primary antibody solution consisting of 0.05 micrograms antibody/mL diluted in blocking solution, i.e., 4% horse serum, 5% ovalbumin (w/v) in PBS/0.1% Tween. After washing, the peptides were incubated with a 1/1000 dilution of antibody peroxidase conjugate for one hour at 25° C. After washing, the peroxidase substrate 2,2′-azino-di-3-ehtylbenzthiazoline sulfonate (ABTS) and 2 microliters of 3 percent H₂O₂ were added. After one hour, the colour development was measured. The colour development was quantified with a charge coupled device (CCD)-camera and an image processing system (as firstly described in Slootstra et al. Mol Divers. 1996 February; 1(2):87-96).
(§2) Peptide synthesis, screening assays and data calculation for alanine-scan of fibronectin-EDA epitope are performed as described in Example 1. Peptides based on […] were synthesized wherein in each peptide one amino acid is replaced by an alanine. The peptides were tested for binding by antibodies 27A12.70, 29E7.35, 17G8.72 and 42H11.51.

peptide TYASPEDGIHELFP = molecular target: T5, peptide TYASPEDGIHELFP
Protocol: as §1, §2

peptide TYSAPEDGIHELFP = molecular target: T6, peptide TYSAPEDGIHELFP
Protocol: as §1, §2

peptide TYSSAEDGIHELFP = molecular target: T7, peptide TYSSAEDGIHELFP
Protocol: as §1, §2

peptide TYSSPADGIHELFP = molecular target: T8, peptide TYSSPADGIHELFP
Protocol: as §1, §2

peptide TYSSPEAGIHELFP = molecular target: T9, peptide TYSSPEAGIHELFP
Protocol: as §1, §2

peptide TYSSPEDGIAELFP = molecular target: T10, peptide TYSSPEDGIAELFP
Protocol: as §1, §2

peptide TYSSPEDGIHALFP = molecular target: T11, peptide TYSSPEDGIHALFP
Protocol: as §1, §2

peptide TYSSPEDGIHEAFP = molecular target: T12, peptide TYSSPEDGIHEAFP
Protocol: as §1, §2

peptide TYSSPEDGIHELFA = molecular target: T13, peptide TYSSPEDGIHELFA
Protocol: as §1, §2

peptide TYSSPEDGIHELFP = molecular target: T14, peptide TYSSPEDGIHELFP
Protocol: as §1, §2

peptide AYSSPEDGIHELFP = molecular target: T15, peptide AYSSPEDGIHELFP
Protocol: as §1, §2

[4] = molecular target: T16, peptide …; remark: listed apart in the source

Row | Binder | Antibody binding (arbitrary optical density units) (arbitrary optical density units) [1] | Antibody binding (arbitrary optical density units) (arbitrary optical density units) [2] | Antibody binding (arbitrary optical density units) (arbitrary optical density units) [3] | Antibody binding (arbitrary optical density units) (peptide TASSPEDGIHELFP) | Antibody binding (arbitrary optical density units) (peptide TYASPEDGIHELFP) | Antibody binding (arbitrary optical density units) (peptide TYSAPEDGIHELFP) | Antibody binding (arbitrary optical density units) (peptide TYSSAEDGIHELFP) | Antibody binding (arbitrary optical density units) (peptide TYSSPADGIHELFP) | Antibody binding (arbitrary optical density units) (peptide TYSSPEAGIHELFP) | Antibody binding (arbitrary optical density units) (peptide TYSSPEDGIAELFP) | Antibody binding (arbitrary optical density units) (peptide TYSSPEDGIHALFP) | Antibody binding (arbitrary optical density units) (peptide TYSSPEDGIHEAFP) | Antibody binding (arbitrary optical density units) (peptide TYSSPEDGIHELFA) | Antibody binding (arbitrary optical density units) (peptide TYSSPEDGIHELFP) | Antibody binding (arbitrary optical density units) (peptide AYSSPEDGIHELFP) | Antibody binding (arbitrary optical density units) (arbitrary optical density units) [4]
1 | B1 | 89 | 66 | 106 | 2670 arbitrary optical density units | 2500 arbitrary optical density units | 2100 arbitrary optical density units | 2090 arbitrary optical density units | 2480 arbitrary optical density units | 2650 arbitrary optical density units | 2560 arbitrary optical density units | 2100 arbitrary optical density units | 1550 arbitrary optical density units | 2160 arbitrary optical density units | 2090 arbitrary optical density units | 2150 arbitrary optical density units | 
2 | B2 | 122 | 91 | 249 | 2790 arbitrary optical density units | 2720 arbitrary optical density units | 2680 arbitrary optical density units | 2710 arbitrary optical density units | 2690 arbitrary optical density units | 2750 arbitrary optical density units | 2400 arbitrary optical density units | 2200 arbitrary optical density units | 1780 arbitrary optical density units | 2600 arbitrary optical density units | 2680 arbitrary optical density units | 2710 arbitrary optical density units | 
3 | B3 | 81 | 74 | 124 | 2840 arbitrary optical density units | 2740 arbitrary optical density units | 2630 arbitrary optical density units | 2660 arbitrary optical density units | 2630 arbitrary optical density units | 2720 arbitrary optical density units | 1800 arbitrary optical density units | 302 arbitrary optical density units |  | 2600 arbitrary optical density units | 2750 arbitrary optical density units | 2780 arbitrary optical density units | 194
